These substances were tested against taxol-stabilized microtubules (UniProt Q6B856) (assay: co-sedimentation).
Sequence of UniProt Q6B856 (Q6B856 whole entry, looked up): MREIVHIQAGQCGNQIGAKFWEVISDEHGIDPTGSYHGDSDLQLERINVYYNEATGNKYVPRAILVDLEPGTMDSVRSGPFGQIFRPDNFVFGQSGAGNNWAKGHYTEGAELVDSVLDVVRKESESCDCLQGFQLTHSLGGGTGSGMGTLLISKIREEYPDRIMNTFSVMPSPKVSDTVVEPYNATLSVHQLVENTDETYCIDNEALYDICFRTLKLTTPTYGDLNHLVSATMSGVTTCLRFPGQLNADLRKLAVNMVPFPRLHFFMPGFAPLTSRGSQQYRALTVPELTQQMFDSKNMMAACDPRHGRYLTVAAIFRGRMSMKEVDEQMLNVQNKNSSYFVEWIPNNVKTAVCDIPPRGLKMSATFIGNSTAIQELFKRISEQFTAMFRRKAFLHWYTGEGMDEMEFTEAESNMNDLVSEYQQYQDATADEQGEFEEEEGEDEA

| Kd | Substance |
| --- | --- |
| 0.59 µM | HIS-TAN1-GFP (natural protein) |
| 1.27 µM | 6xHIS-tagged ZmTAN1 (TANGLED1, maize) (natural protein) |
| 0.06 µM | HIS-TAN1-GFP-Atto488 (natural protein) |

Reference: paper doi:10.1101/711796
